Legend:
HP1α [1] = target: T1, HP1α (mouse, UniProt Q61686 1-191); experiment: BLI; BLI: 100 mM KCl, 50 mM NaCl, 20 mM Na phosphate, pH 8 (G4) or pH 7 (i-motif, dsDNA), room temp, 500 nM oligo or titration; EMSA: 50 mM Tris-HCl pH 7.5, 100 mM KCl, 0.5 mM EDTA, 0.5 mM DTT, 0.1 mg/ml BSA, room temp 1 h; conditions: protein: recombinant, tags: N-terminal His6 (pPROEX HTb), chain copies: 2
HP1α [2] = target: T1, HP1α; experiment: BLI; pH 7; BLI: 100 mM KCl, 50 mM NaCl, 20 mM Na phosphate, pH 8 (G4) or pH 7 (i-motif, dsDNA), room temp, 500 nM oligo or titration; EMSA: 50 mM Tris-HCl pH 7.5, 100 mM KCl, 0.5 mM EDTA, 0.5 mM DTT, 0.1 mg/ml BSA, room temp 1 h; conditions: protein: recombinant, tags: N-terminal His6 (pPROEX HTb), chain copies: 2
HP1α [3] = target: T1, HP1α; experiment: BLI; K+; BLI: 100 mM KCl, 50 mM NaCl, 20 mM Na phosphate, pH 8 (G4) or pH 7 (i-motif, dsDNA), room temp, 500 nM oligo or titration; EMSA: 50 mM Tris-HCl pH 7.5, 100 mM KCl, 0.5 mM EDTA, 0.5 mM DTT, 0.1 mg/ml BSA, room temp 1 h; conditions: protein: recombinant, tags: N-terminal His6 (pPROEX HTb), chain copies: 2
HP1β = HP1β (mouse, UniProt P83917 1-185); experiment: as above; conditions: protein: recombinant; tags: N-terminal His6 (pPROEX HTb); chain copies: 2; antiparallel G4
HP1α 3K-A = HP1α 3K-A (mouse, UniProt Q61686 1-191, K104A;K105A;K106A); experiment: as above; conditions: protein: recombinant; tags: N-terminal His6 (pPROEX HTb); chain copies: 2; antiparallel G4
HP1γ = HP1γ (mouse, UniProt P23198 1-183); experiment: as above; conditions: protein: recombinant; tags: N-terminal His6 (pPROEX HTb); chain copies: 2; antiparallel G4
Sequence of HP1γ (P23198 whole entry): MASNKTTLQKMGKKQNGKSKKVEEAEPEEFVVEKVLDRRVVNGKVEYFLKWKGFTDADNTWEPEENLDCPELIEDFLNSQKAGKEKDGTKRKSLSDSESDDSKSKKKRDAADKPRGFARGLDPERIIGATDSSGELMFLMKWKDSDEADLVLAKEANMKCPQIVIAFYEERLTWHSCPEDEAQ

T1 sequence (Q61686 whole entry): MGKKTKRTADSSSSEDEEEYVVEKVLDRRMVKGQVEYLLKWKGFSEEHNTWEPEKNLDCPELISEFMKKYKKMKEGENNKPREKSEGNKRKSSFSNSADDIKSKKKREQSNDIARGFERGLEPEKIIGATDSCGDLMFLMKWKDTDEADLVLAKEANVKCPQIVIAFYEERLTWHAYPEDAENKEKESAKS
Sequence of HP1α 3K-A (Q61686 whole entry K104A/K105A/K106A): as the sequence (Q61686 whole entry) above, with K104A, K105A, K106A counted along it
Sequence of HP1β (P83917 whole entry): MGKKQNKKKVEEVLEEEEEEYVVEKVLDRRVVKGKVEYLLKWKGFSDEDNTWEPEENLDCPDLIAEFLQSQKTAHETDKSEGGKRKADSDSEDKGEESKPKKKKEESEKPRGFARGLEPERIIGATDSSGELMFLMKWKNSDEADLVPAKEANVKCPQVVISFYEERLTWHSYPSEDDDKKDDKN

B1: rC-rich22 (ssRNA)
RNA: ACCCAAUCCCAAUCCCAAUCCC
binding result (HP1α [1]): no binding

B2: LL3rep (structured_DNA)
DNA: TCGTTCCGTTTTTCGTTCCGTTTTTCGTTCCGTTTTTCGTTCCGT
binding result (HP1α [2]; mini-i-motif): no binding

B3: kras (structured_DNA)
DNA: AGGGCGGTGTGGGAAGAGGGAAGAGGGGGAGG
Kd (HP1α [3]; parallel G4): 68.8 ± 0.7 nM

B4: Oligo D (structured_DNA)
DNA: TGGGTGGGTTAGGGTGGGTGGGTGGGTTAGGGTGGGT
Kd (HP1α [3]; parallel G4): 52.6 ± 1.1 nM

B5: src16 (structured_DNA)
DNA: GGGCTGCTGGGACTGGTTGGGAGGGCACTCTGGGG
Kd (HP1α [3]; antiparallel G4): 1630 ± 1700 nM

B6: Oligo E (structured_DNA)
DNA: TGGGTGGGTTAGGGTTAGGGTGGGTGGGTTAGGGTTAGGGT
Kd (HP1α [3]; parallel G4): 43.8 ± 1 nM

B7: ckit2 (structured_DNA)
DNA: GGGCGGGCGCCAGGGAGGGG
Kd (HP1α [3]; parallel G4): 199 ± 3 nM

B8: Oligo G (structured_DNA)
DNA: TGGGTTAGGGTTAGGGTTAGGGTGGGTTAGGGTTAGGGTTAGGGT
binding result (HP1α [3]; antiparallel or hybrid G4): no binding

B9: src2 (structured_DNA)
DNA: GGGGCAGCTGGGTCGCTCGGGGAACGGGG
Kd (HP1α [3]; antiparallel G4): 410 ± 20 nM

B10: bcl2 (structured_DNA)
DNA: AGGGGCGGGCGCGGGAGGAAGGGGGCGGGAGCGGGGCTG
Kd (HP1α [3]; parallel G4): 93.5 ± 1.6 nM

B11: c-myc2 (structured_DNA)
DNA: GGGTGGGTAGGGTGGG
Kd (HP1α [3]; parallel G4, at least dimer on native PAGE): 610 ± 40 nM

B12: Oligo C (structured_DNA)
DNA: TGGGTTAGGGTGGGTTAGGGTGGGTTAGGGTGGGTTAGGGT
Kd (HP1α [3]; parallel G4): 78.2 ± 0.3 nM

B13: Oligo A (structured_DNA)
DNA: TGGGTGGGTGGGTGGGTGGGTGGGTGGGTGGGT
Kd (HP1α [3]; parallel G4): 86.8 ± 0.2 nM

B14: src3 (structured_DNA)
DNA: GGGAGGGAGGGCTGGGGG
Kd (HP1α [3]; parallel G4): 140 ± 2 nM

B15: gTEL45 (structured_DNA)
DNA: GGGTTAGGGTTAGGGTTAGGGTTAGGGTTAGGGTTAGGGTTAGGG
binding result (HP1β): no binding
binding result (HP1α 3K-A): no binding
binding result (HP1α [3]; antiparallel G4): no binding
binding result (HP1γ): no binding

B16: cTEL45 (structured_DNA)
DNA: CCCTAACCCTAACCCTAACCCTAACCCTAACCCTAACCCTAACCC
binding result (HP1α [2]; i-motif (partial at pH 7)): no binding

B17: Oligo B (structured_DNA)
DNA: TGGGTTGGGTTGGGTTGGGTTGGGTTGGGTTGGGTTGGGT
Kd (HP1α [3]; parallel G4, monomer-dimer equilibrium): 69.1 ± 0.9 nM

B18: Oligo F (structured_DNA)
DNA: TGGGTTAGGGTTAGGGTGGGTGGGTTAGGGTTAGGGTGGGT
Kd (HP1α [3]; parallel G4): 61.7 ± 1.5 nM

B19: Thy45 (ssDNA)
DNA: TTTTTTTTTTTTTTTTTTTTTTTTTTTTTTTTTTTTTTTTTTTTT
binding result (HP1α [1]; unstructured): no binding

— article PMC6954420, “Heterochromatin protein 1α interacts with parallel RNA and DNA G-quadruplexes”
